According to patent publication US8148119B2, “Hydroxylase gene and use thereof” (Microbiopharm Japan Co., Ltd., priority 2006, dated 2012):
“Also recorded” adds a separate entry of the source. Like-named read-outs stand apart in the source and are kept apart here.

Experiments:
[1] = cited from earlier work
VDH = target: T1, VDH (Pseudonocardia autotrophica, UniProt C4B644); test: Reduced-CO difference spectral analysis, VDH expression in Escherichia coli BL21(DE3) transformants
T1 construct: there was no mutation of the VDH gene and the VDH gene was inserted in the designated site; made in house; host or cells: Escherichia coli BL21(DE3), cell-free extract
T1 sequence (C4B644 2-403): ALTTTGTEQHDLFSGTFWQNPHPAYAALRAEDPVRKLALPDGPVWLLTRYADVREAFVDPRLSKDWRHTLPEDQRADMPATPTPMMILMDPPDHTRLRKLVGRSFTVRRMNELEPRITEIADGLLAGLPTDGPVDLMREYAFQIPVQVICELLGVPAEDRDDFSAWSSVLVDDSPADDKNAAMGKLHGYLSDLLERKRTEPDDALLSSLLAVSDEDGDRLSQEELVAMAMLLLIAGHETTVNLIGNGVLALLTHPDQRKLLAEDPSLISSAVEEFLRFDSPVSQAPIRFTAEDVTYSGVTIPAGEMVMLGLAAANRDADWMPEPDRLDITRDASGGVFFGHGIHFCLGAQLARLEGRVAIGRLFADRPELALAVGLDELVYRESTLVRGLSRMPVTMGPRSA
Protocol: First, the cell suspension obtained by the method previously described was subjected to cell disruption at 4° C. using 0.1 mm glass beads by a cell disruptor, Multi-beads shocker (manufactured by Yasui Kikai Corporation). In the cell disruption, ten cycles of 30-second shaking at 2500 rpm and a 30-second break were conducted. The cell-disrupted solution was centrifuged at 12000 rpm for 10 minutes to thereby obtain a cell-free extract. 700 μl of the cell-free extract was transferred into each of two test tubes with caps and carbon monoxide was purged into one of the tubes. Then, a small amount of sodium hydrosulfite was added to the cell-free extract in both of the tubes. Taking the absorption spectrum at from 400 nm to 500 nm of the sample without the purge of carbon monoxide as the baseline level, the absorption spectrum at from 400 to 500 nm of the sample purged with carbon monoxide was scanned using a spectrophotometer (U-3210 SpectrophotoMeter manufactured by HITACHI, Ltd.).
First, the cell suspension of transformed Escherichia coli BL21(DE3)/pVDH-thcCD obtained by the method previously described was subjected to cell disruption at 4° C. using 0.1 mm glass beads by a cell disruptor, Multi-beads shocker (manufactured by Yasui Kikai Corporation). In the cell disruption, ten cycles of 30-second shaking at 2500 rpm and a 30-second break were conducted. […]

[2] = VD3 conversion in reconstituted system (cell-free extract or purified VDH plus redox partner); assay type: biochemical
[3] = cited from earlier work; remark: listed apart in the source

B1: P450SU-1: cytochrome P450 derived from actinomycete Streptomyces griseolus ATCC 11796, reported to hydroxylate vitamin D3 (protein, UniProt P18326 2-406, looked up)
Vitamin D3 dihydroxylase: TDTATTPQTTDAPAFPSNRSCPYQLPDGYAQLRDTPGPLHRVTLYDGRQAWVVTKHEAARKLLGDPRLSSNRTDDNFPATSPRFEAVRESPQAFIGLDPPEHGTRRRMTISEFTVKRIKGMRPEVEEVVHGFLDEMLAAGPTADLVSQFALPVPSMVICRLLGVPYADHEFFQDASKRLVQSTDAQSALTARNDLAGYLDGLITQFQTEPGAGLVGALVADQLANGEIDREELISTAMLLLIAGHETTASMTSLSVITLLDHPEQYAALRADRSLVPGAVEELLRYLAIADIAGGRVATADIEVEGHLIRAGEGVIVVNSIANRDGTVYEDPDALDIHRSARHHLAFGFGVHQCLGQNLARLELEVILNALMDRVPTLRLAVPVEQLVLRPGTTIQGVNELPVTW
Hydroxylation of vitamin D3 to 25-hydroxy vitamin D3 and of 25-hydroxy vitamin D3 to 1α,25-hydroxy vitamin D3 ([1]; reported by Sawada et al. 2004): weak activity

B2: VDH: hydroxylase of vitamin D or the like from Pseudonocardia autotrophica, cytochrome P450, amino acid sequence ID No. 2 (protein, listed as Pseudonocardia autotrophica)
chain: MALTTTGTEQHDLFSGTFWQNPHPAYAALRAEDPVRKLALPDGPVWLLTRYADVREAFVDPRLSKDWRHTLPEDQRADMPATPTPMMILMDPPDHTRLRKLVGRSFTVRRMNELEPRITEIADGLLAGLPTDGPVDLMREYAFQIPVQVICELLGVPAEDRDDFSAWSSVLVDDSPADDKNAAMGKLHGYLSDLLERKRTEPDDALLSSLLAVSDEDGDRLSQEELVAMAMLLLIAGHETTVNLIGNGVLALLTHPDQRKLLAEDPSLISSAVEEFLRFDSPVSQAPIRFTAEDVTYSGVTIPAGEMVMLGLAAANRDADWMPEPDRLDITRDASGGVFFGHGIHFCLGAQLARLEGRVAIGRLFADRPELALAVGLDELVYRESTLVRGLSRMPVTMGPRSA
Estimated concentration of VDH per culture (VDH; Escherichia coli BL21(DE3)/pVDH-camAB): 113 nM | VDH expression per culture fluid (VDH; Escherichia coli BL21(DE3)/pVDH-thcCD): 258 nM | Hydroxides of VD3 detected by HPLC ([2]; ferredoxin and ferredoxin reductase derived from spinach, 10 μM VD3, 30° C.): a reaction proceeds; also recorded: converting VD3 to HVD, DHVD and THVD | Reaction in reconstituted system with putidaredoxin and putidaredoxin reductase ([2]; redox partner derived from Pseudomonas putida): electron transfer reaction did not proceed

B3: Human CYP27A1: human cytochrome P450 known to have hydroxylation activity at 25-position of vitamin D3 (protein, UniProt Q02318 34-531, looked up)
Sterol 26-hydroxylase, …: ALPSDKATGAPGAGPGVRRRQRSLEEIPRLGQLRFFFQLFVQGYALQLHQLQVLYKAKYGPMWMSYLGPQMHVNLASAPLLEQVMRQEGKYPVRNDMELWKEHRDQHDLTYGPFTTEGHHWYQLRQALNQRLLKPAEAALYTDAFNEVIDDFMTRLDQLRAESASGNQVSDMAQLFYYFALEAICYILFEKRIGCLQRSIPEDTVTFVRSIGLMFQNSLYATFLPKWTRPVLPFWKRYLDGWNAIFSFGKKLIDEKLEDMEAQLQAAGPDGIQVSGYLHFLLASGQLSPREAMGSLPELLMAGVDTTSNTLTWALYHLSKDPEIQEALHEEVVGVVPAGQVPQHKDFAHMPLLKAVLKETLRLYPVVPTNSRIIEKEIEVDGFLFPKNTQFVFCHYVVSRDPTAFSEPESFQPHRWLRNSQPATPRIQHPFGSVPFGYGVRACLGRRIAELEMQLLLARLIQKYKVVLAPETGELKSVARIVLVPNKKVGLQFLQRQC
Km ([1]; literature values (Sawada et al. 2004), read-out: Km for VD3): 3.2 µM | Vmax for VD3 ([1]; literature values): 270 mmol/min/mol of P450 | Km ([3]; literature values (Sawada et al.; Uchida et al.), read-out: Km for 25-OH VD3): 3.5 µM | Vmax for 25-OH VD3 ([3]; literature values): 21 mmol/min/mol of P450
